Assays:
[1] = target: T1, Human GDF11 with Flag-tag on N-terminus (human, UniProt O95390 11-407); assay: ELISA, biotinylated human latent GDF11 (20 nM) on streptavidin plate, anti-human IgG-HRP
T1 construct: Whole entry as named; Biotinylated in the ELISA; also called Flag-hGDF11; human latent GDF11
T1 sequence: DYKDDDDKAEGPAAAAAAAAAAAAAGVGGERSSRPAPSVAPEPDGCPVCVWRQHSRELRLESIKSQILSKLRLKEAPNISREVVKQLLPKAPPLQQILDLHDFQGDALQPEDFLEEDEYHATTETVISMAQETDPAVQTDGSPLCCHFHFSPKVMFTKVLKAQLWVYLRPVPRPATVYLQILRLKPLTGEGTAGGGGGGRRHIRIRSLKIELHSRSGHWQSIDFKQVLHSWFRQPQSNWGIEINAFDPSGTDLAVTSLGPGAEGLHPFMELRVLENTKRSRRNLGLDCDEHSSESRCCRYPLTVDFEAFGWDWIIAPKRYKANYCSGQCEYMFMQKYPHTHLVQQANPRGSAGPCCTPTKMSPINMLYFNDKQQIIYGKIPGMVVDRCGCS
Protocol: Uncoated ELISA plates (NUNC-IMMUNO plate MAXISORP™ surface, Nalge Nunc International) were coated with 20 μL of 50 nM streptavidin (GenScript) for 2 hour at room temperature. Plates were then washed with PBST three times and blocked with 50 μL 20% Blocking One (Nacalai Tesque) for overnight. On the next day, each well of the plates was incubated with biotinylated human latent myostatin at 2 nM/well/20 μL or biotinylated human latent GDF11 at 20 nM/well/20 μL for 2 hours. After washing, 20 μL of antibody sample was added to the wells and the plates were left for 1 hour. The plates were washed and 20 μL of anti-human IgG-horseradish peroxidase (HRP) (Abcam) diluted in HEPES-buffered saline was added, and the plates were left for another hour. The wells were washed again, and then 50 μL ABTS (KPL) was added to each well, and the plates were incubated for 1 hour.

[2] = target: T2, Cynomolgus monkey latent myostatin (cynomolgus monkey, UniProt Q95J86 25-266; Q95J86 267-375); assay: SPR (BIACORE T200), antibody captured by ProA/G, latent myostatin as analyte, 37 C, pH7.4, 1:1 fit
T2 construct: signal 1-24; also called Cyno latent myostatin
T2 sequence 1: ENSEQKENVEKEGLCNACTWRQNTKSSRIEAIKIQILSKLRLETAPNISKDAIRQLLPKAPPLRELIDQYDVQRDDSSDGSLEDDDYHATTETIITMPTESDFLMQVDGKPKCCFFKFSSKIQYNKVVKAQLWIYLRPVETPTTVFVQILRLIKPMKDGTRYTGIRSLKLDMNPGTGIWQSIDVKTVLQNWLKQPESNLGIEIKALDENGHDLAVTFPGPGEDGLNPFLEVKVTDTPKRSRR
T2 sequence 2: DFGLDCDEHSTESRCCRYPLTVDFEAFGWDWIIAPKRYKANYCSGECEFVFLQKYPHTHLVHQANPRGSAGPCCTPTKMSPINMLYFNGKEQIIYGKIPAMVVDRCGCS
Protocol: (§1) The kinetic parameters of anti-latent myostatin antibodies against human, cynomolgus monkey (cyno), and mouse latent myostatin were assessed at 37° C. at pH7.4 using a BIACORE® T200 instrument (GE Healthcare). ProA/G (Pierce) was immobilized onto all flow cells of a CM4 chip using amine coupling kit (GE Healthcare). Anti-latent myostatin antibody and analytes were prepared in ACES pH7.4 (20 mM ACES, 150 mM NaCl, 1.2 mM CaCl₂), 0.05% TWEEN® 20, 0.005% NaN₃). […] Then human, cyno, or mouse latent myostatin was injected at 3.125 to 50 nM prepared by two-fold serial dilution, followed by dissociation. The sensor surface was regenerated with 25 mM NaOH. Kinetic parameters were determined by processing and fitting the data to a 1:1 binding model using BIACORE® T200 Evaluation software, version 2.0 (GE Healthcare).

Mouse latent myostatin = target: T3, Mouse latent myostatin (mouse, UniProt O08689 26-267; O08689 268-376); assay: as above
T3 construct: signal 1-24
T3 sequence 1: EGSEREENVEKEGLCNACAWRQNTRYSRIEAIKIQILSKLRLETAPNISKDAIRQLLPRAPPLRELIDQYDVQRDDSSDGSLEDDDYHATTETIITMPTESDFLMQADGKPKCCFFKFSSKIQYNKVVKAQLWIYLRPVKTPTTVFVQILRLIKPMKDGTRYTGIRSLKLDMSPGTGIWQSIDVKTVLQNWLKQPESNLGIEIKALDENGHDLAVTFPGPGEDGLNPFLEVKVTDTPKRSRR
T3 sequence 2: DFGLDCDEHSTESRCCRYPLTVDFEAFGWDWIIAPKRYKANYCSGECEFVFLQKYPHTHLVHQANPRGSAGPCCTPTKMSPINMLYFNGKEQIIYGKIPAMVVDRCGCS
Protocol: as §1

Human latent myostatin [3] = target: T4, Human latent myostatin (human, UniProt O14793 25-266; O14793 267-375); assay: as above
T4 construct: Biotinylated in the ELISAs; also called human myostatin latent form
T4 sequence 1: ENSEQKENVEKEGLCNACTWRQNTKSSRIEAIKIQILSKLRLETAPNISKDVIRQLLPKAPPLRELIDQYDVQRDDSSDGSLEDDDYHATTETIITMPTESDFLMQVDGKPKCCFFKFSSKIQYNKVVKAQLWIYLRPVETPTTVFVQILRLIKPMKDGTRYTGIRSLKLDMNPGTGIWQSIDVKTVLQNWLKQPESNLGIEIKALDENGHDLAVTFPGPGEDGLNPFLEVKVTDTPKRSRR
T4 sequence 2: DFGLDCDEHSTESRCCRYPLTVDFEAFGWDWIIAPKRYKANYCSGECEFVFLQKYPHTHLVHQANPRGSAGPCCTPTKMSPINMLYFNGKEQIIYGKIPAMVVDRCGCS
Protocol: as §1

Human latent myostatin [4] = target: T4, Human latent myostatin; assay: SPR (BIACORE) as in Example 7; antigen not given, values equal those for human latent myostatin in Table 3
Protocol: as §1
Humanized antibodies were transiently expressed in FS293-F cells, and HEK Blue Assay and BIACORE® analysis were carried out as described above.

mature myostatin = target: T5, mature myostatin (human (mature form 100% identical in …, UniProt O08689 268-376 (mouse entry))); assay: ELISA, biotinylated antigen (4 nM) on streptavidin plate, anti-human IgG-HRP
T5 construct: Disulfide-bonded homodimer purified from latent myostatin; Biotinylated in the ELISA; also called human myostatin mature form; active myostatin
T5 sequence: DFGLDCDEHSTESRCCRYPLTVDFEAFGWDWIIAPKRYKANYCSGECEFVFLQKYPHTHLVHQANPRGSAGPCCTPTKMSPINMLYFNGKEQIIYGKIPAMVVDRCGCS
Protocol: Uncoated ELISA plates (NUNC-IMMUNO plate MAXISORP surface, Nalge Nunc International) were coated with 20 μL of 50 nM streptavidin (GenScript) for 1 hour at room temperature. Plates were then washed with PBST three times and blocked with 50 μL 20% Blocking One (Nacalai Tesque) overnight. On the next day, each well of each plate was incubated with biotinylated mature myostatin, human or mouse biotinylated latent myostatin, or biotinylated recombinant mouse myostatin propeptide-Fc chimera protein (R&D Systems) at 4 nM/well/20 μL for 2 hours. After washing, 20 μL of antibody sample was added to the wells and the plates were left for 1 hour. The plates were washed and 20 μL of anti-human IgG-horseradish peroxidase (HRP) (Abcam) diluted in HEPES-buffered saline was added, and the plates were left for another hour. The plates were then washed again, and then 50 μL ABTS (KPL) was added to each well, and the plates were incubated for 1 hour.

binding result [1]: no binding
Kd [2]: 0.0717 nM
koff [2]: 7.79e-05 s⁻¹
kon [2]: 1.09e+06 M⁻¹ s⁻¹
Kd (Mouse latent myostatin): 0.0579 nM
koff (Mouse latent myostatin): 8.16e-05 s⁻¹
kon (Mouse latent myostatin): 1.41e+06 M⁻¹ s⁻¹
Kd (Human latent myostatin [3]): 0.0766 nM
koff (Human latent myostatin [3]): 8.65e-05 s⁻¹
kon (Human latent myostatin [3]): 1.13e+06 M⁻¹ s⁻¹
Kd (Human latent myostatin [4]): 0.0766 nM
koff (Human latent myostatin [4]): 8.65e-05 s⁻¹
kon (Human latent myostatin [4]): 1.13e+06 M⁻¹ s⁻¹
binding result (mature myostatin): no binding
B1: MS_MST1032Ha-G1m/MST1032La-k0MC (antibody, human IgG1, kappa, V domains shown)
VH: QSLEESGGRLVTPGGSLTVTCRVSGIDLSSYDISWVRQAPGKGLEWIGIISYAGSTYYASWAKGRFTISKTSTTVDLKMTSLTTEDTATYFCARGVPAYSTGGDLWGPGTLVTVSS
VL: AQVLTQTASSVSAAVGGTVTINCQSSQSVYDNNWLSWFQQKPGQPPKLLIYWASTLASGVPSRFKGSGSGTQFTLTISDLECDDAATYYCAGGYGGGLYAFGGGTKVEIKR
notes: Chimeric antibody: rabbit variable regions, human G1m / k0MC constant regions; also called MST1032-G1m
